The data set deals with the molecule itself. The experiment in a line: crystal structure; CR-VI+ crystals, space group P2_(1)2_(1)2_(1), two molecules in the asymmetric unit; vapour diffusion at 20.5 °C, PGA-HT screen C11 (pH 6.5) with 0.1 M guanidine hydrochloride.

Consider 1 protein from publication PMC4659945, “X-ray structure and activities of an essential Mononegavirales L-protein domain” (Nature Communications, 2015).

B1: CR-VI+ domain of human metapneumovirus (hMPV) L protein (domain or fragment)
chain: NALLTPIPSPMVNLTQVIDPTEQLAYFPKITFERLKNYDTSSNYAKGKLTRNYMILLPWQHVNRYNFVFSSTGCKVSLKTCIGKLMKDLNPKVLYFIGEGAGNWMARTACEYPDIKFVYRSLKDDLDHHYPLEYQRVIGELSRIIDSGEGLSMETTDATQKTHWDLIHRVSKDALLITLCDAEFKDRDDFFKMVILWRKHVLSCRICTTYGTDLYLFAKYHAKDCNVKLPFFVRSVATFIMQGSKLSGSECYILLTLGHHNNLPCHGEIQNSKMKIAVCNDFYAAKKLDNKSIEANCKSLLSGLRIPINKKELNRQRRLLTLQSNHSSVATVGGSKVIESKWLTNKANTIIDWLEHILNSPKGELNYDFFEALENTYPNMIKLIDNLGNAEIKKLIKVTGYMLVSKK
modifications: disulphide between C1877 of the two copies
notes: L protein (large RNA polymerase) of human metapneumovirus isolate 00-1, GenBank AF371337.2, residues 1599-2005 (CR-VI ~1616-1883 and +domain 1884-2005); synthetic gene, codon optimised for Sf cells; The text calls it a 406-residue fragment, but 1599-2005 counts 407 residues; A selenomethionine form was used for phasing; The construct was also expressed in HEK293T and BL21 Star; crystals came from …
As to B1, the stoichiometry N (in general, a count of units in the complex or per binding partner) stood at 2.
